Values belong to the binder of their own block, whether it stands above or below them. Primed or numbered codes have the meaning given here. No end group written: not given here. Biotin′ = not defined here
Key:
Experiment in all cases: ELISA, biotinylated peptide on streptavidin plate
[1] = biological target: RhD202.158E07
[2] = biological target: RhD305.181E06
[3] = biological target: RhD162.119G12

signal-to-noise ratio [1]: 10
Binder: CAPRNPYEC-{Biotin′} (cysteine pairing not given here) [PEP202]

signal-to-noise ratio [2]: 10
Binder: CTTLLHFLC (coupled to Biotin at the C-terminus) [PEP305]

signal-to-noise ratio [3]: 10
Binder: CMGYGPRMC-{Biotin′} (cysteine pairing not given here) [PEP162]

Source: US20080131882A1
